Like-named read-outs stand apart in the source and are kept apart here.

The results in this text go back to patent US6451762B1 (Novo Nordisk A/S, priority 1997, dated 2002).

The nature of series [1]: Disappearance after subcutaneous injection in pigs. From the text: The gel filtration experiment using the conditions prescribed in this section is the direct physico-chemical method to reveal the potential aggregate formation property of an insulin derivative. Disappearance after subcutaneous injection in pigs reflects the combination of the albumin binding and polymer formation properties of the insulin derivative, besides a variety of biological factors.

Series [2] deals with T1, Albumin (Homo sapiens, UniProt P02768). The experiment in a line: Albumin binding constant. Particulars: normalised using Lys^B29(N^ε tetradecanoyl) des(B30) human insulin as reference.
Series [3] can be described thus: Gel filtration on Sephacryl S-300 HR (aggregate formation, method 1). It counts as physicochemical. Details: key to KAV: KAV=(VE-V0)/(VT-V0); fraction of available elution volume. Background: SEC sorts molecules by how far they enter the pores of the column.
The nature of series [4]: Gel filtration method 2 on Superose 6HR (HPLC, 37° C.). It counts as physicochemical. The following applies: 140 mM NaCl, 10 mM tris, pH 7.4. As to the method:
An alternative method to measure the capability of insulin derivatives of forming soluble high molecular weight aggregates was developed, suitable for HPLC equipment. The column dimensions, injection volume, and flow rate correspond to the first method, whereas the temperature is increased to 37° C. and the phosphate buffer is changed to trishydroxymethylaminomethan hydrochloride and additional sodium chloride. The aggregated state of insulin is defined to elute before the gel filtration standard aldolase like in the first method.

A short description of series [5]: Gel filtration on Sephacryl S-300 HR (aggregate formation, method 1). The series is classed as physicochemical. Further details: key to KAV: KAV=(VE-V0)/(VT-V0); fraction of available elution volume. Particulars: for KAV: Sephacryl S-300 HR. As to the method: A pH neutral aqueous buffer system is used in the gel filtration and the insulin derivatives in the aggregated state are applied to the column in the form of a pharmaceutical preparation at a concentration of 600 nmol insulin/ml. […] However, when the actual state of aggregation in a pharmaceutical preparation is to be assessed, the medium of the preparation, exclusive the Zn^2+ which is insulin bound, is used as the eluent for the gel filtration. A column of 28×1 cm is eluted at a rate of 15 ml/h. Insulin derivatives were injected (200 μl) as a standard formulation comprising 600 μM derivative, 200 or 300 μM Zn^2+, 20 mM NaCl (or varied), 16 mM phenol, 16 mM m-cresol, 7 mM sodium phosphate at pH 7.5. Exclusion limit of Sephacryl® S-300 HR is stated by the manufacturer, Pharmacia, as a molecular weight of 1,500 kDa for globular proteins and 400 kDa for linear dextrans. In practice the elution of solutes of different size is characterised by the available volume as KAV values: KAV=(VE-V0)/(VT-V0) where VE is elution volume, V0 is void volume, e.g. elution volume of blue dextran, VT is total volume. Thus, the KAV value is independent of column dimension. […]

Series [6] addresses T1, Albumin.

Consider Human insulin [reference compound], for which, in series [1] (pigs, subcutaneous injection, normalised using Lys^B29(N^ε tetradecanoyl) des(B30) human insulin as reference), the “Disappearance T50%” value is on record as “(2) h”. Besides, in series [1] (pigs, subcutaneous, normalised to Lys^B29(N^ε tetradecanoyl-) des(B30) human insulin (T50% = 14.3 h)), the “Disappearance in pigs, T50%” value was found to be 2 h. Further, the “Albumin binding Kass” value with Albumin [2] is listed as 0 (mol/l)^−1. This substance also showed a KAV in series [3] (Sephacryl S-300 HR, pH 7.4 eluent, Zinc free) of 0.72. Moreover, the “KAV (Superose 6HR) 2Zn^2+/6 ins” value in series [4] (2 Zn2+/6 ins) is recorded as 0.64. In series [4] (3 Zn2+/6 ins), the “KAV (Superose 6HR) 3Zn^2+/6 ins” value is 0.64.

As for “Lys^B29(N^εω-carboxyheptadecanoyl) des(B30) human insulin”, the KAV in series [5] (eluent 125 mM NaCl, 20 mM sodium phosphate pH 7.4, sample 600 μM derivative, 200 μM Zn2+, 0-20 mM NaCl, phenol, m-cresol, pH 7.5) is reported as 0.05; in series [5] (medium of the preparation as eluent: 5 mM sodium phosphate pH 7.5, 10 mM NaCl, 16 mM phenol, 16 mM m-cresol, 1.6% glycerol, 2-3 Zn2+/hexamer), “about 0.45”. In series [5] (gel filtration at neutral pH, formulation used (Table 1)), the “formation of high molecular weight soluble aggregates” value is reported as “capable of forming high molecular weight soluble aggregates”. The “degree of aggregation in the published formulation” value in series [5] (medium of the preparation as eluent, 10 mM NaCl, 2-3 Zn2+/hexamer) is reported as “no high molecular weight aggregates of insulin derivatives was present”. Further, in series [1] (pig, in vivo, sc), the “Disappearance T50%” value amounted to 18.7 h. The “Albumin binding Kass” value with Albumin [6] is reported as 25 × 10^5 (mol/l)^−1. In series [3] (gel filtration, absence of Zn2+ (0 Zn2+/hexamer)), the formation of aggregates entry is on record as “aggregates are not formed”.
